Assay results: paper PMC8038949, “Structural basis for the DNA-binding activity of human ARID4B Tudor domain”

Molecular target: T1, ARID4B TD121 E50L (Homo sapiens, UniProt Q4LE39 1-121, E50L)
T1 sequence: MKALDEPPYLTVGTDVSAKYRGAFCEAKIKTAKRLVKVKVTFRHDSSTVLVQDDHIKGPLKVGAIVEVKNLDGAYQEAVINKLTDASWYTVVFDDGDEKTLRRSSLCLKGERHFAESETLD
Assay: EMSA; stronger than wild-type ARID4B TD121; 50 mM Tris-HCl pH 7.6, 50 mM NaCl (buffer A); ITC 25 C; EMSA 4 C, 12 uM DNA, 8% native gel in TBE; NMR titration by 1H-15N HSQC (temperature not stated for titration; buffer A also defined elsewhere as 20 mM phosphate, 100 mM NaCl, pH 7.0)
Conditions: protein: recombinant; 5' overhang 1 nt on each strand (17 bp paired)

B1: dsDNA1 (dsDNA)
DNA 1: CTCAGGTCAAAGGTCACG
DNA 2: TCGTGACCTTTGACCTGA
  binding result: binds
